B1: SMOC2 (parent)
chain: QKPLCASDGRTFLSRCEFQRAKCK

Variants of: B1
Experiment: protein stability index of a GFP-peptide fusion (GPS, HEK-293T) (PSI 1-6); higher = more stable
Settings: c terminus: a fixed tail appended
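Note: lentivirally expressed fusions sorted by FACS into six bins by GFP to DsRed ratio, PSI derived from sequencing read proportions per bin multiplied by bin number.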

Row | Variant | protein stability index
1 | QKPLCASDGRTFLSRCEFQGAKCK [R20G] | 3.58
2 | QKPLCASDGRTFLSRCEFQYAKCK [R20Y] | 2.62
3 | QKPLCASDGRTFLSRCEFQAAKCK [R20A] | 3.14
4 | QKPLCASDGRTFLSRCEFQVAKCK [R20V] | 2.9
5 | QKPLCASDGRTFLSRCEFQTAKCK [R20T] | 3.83
6 | QKPLCASDGRTFLSRCEFQPAKCK [R20P] | 3.61
7 | QKPLCASDGRTFLSRCEFQIAKCK [R20I] | 3.39
8 | QKPLCASDGRTFLSRCEFQNAKCK [R20N] | 3.1
9 | QKPLCASDGRTFLSSCEFQRAKCK [R15S] | 3.41
10 | QKPLCASDGRTFLSTCEFQRAKCK [R15T] | 4.28
11 | QKPLCASDGRTFLSACEFQRAKCK [R15A] | 3.65
12 | QKPLCASDGRTFLSICEFQRAKCK [R15I] | 3.77
13 | QKPLCASDGRTFLSLCEFQRAKCK [R15L] | 3.65
14 | QKPLCASDGRTFLSWCEFQRAKCK [R15W] | 3.32
15 | QKPLCASDGRTFLSPCEFQRAKCK [R15P] | 4.64
16 | QKPLCASDGRTFLSFCEFQRAKCK [R15F] | 3.18
17 | QKPLCASDGRTFLSNCEFQRAKCK [R15N] | 3.09
18 | QKPLCASDGRTFLSVCEFQRAKCK [R15V] | 3.71
19 | QKPLCASDGRTFLSKCEFQRAKCK [R15K] | 4.2
20 | QKPLCASDGRTFLSDCEFQRAKCK [R15D] | 4.47
21 | QKPLCASDGRTFLSRCEFIRAKCK [Q19I] | 3
22 | QKPLCASDGRTFLSRCEFCRAKCK [Q19C] | 3.48
23 | QKPLCASDGRTFLSRCEFDRAKCK [Q19D] | 3.83
24 | QKPLCASDGRTFLSRCEFYRAKCK [Q19Y] | 3.13

Row | Variant | protein stability index
25 | QKPLCASDGRTFLSRCEFMRAKCK [Q19M] | 3.09
26 | QKPLGASDGRTFLSRCEFQRAKCK [C5G] | 2.44
27 | QKPLHASDGRTFLSRCEFQRAKCK [C5H] | 2.7
28 | QKPLRASDGRTFLSRCEFQRAKCK [C5R] | 2.5
29 | QKPLPASDGRTFLSRCEFQRAKCK [C5P] | 2.94
30 | QKPLAASDGRTFLSRCEFQRAKCK [C5A] | 3.31
31 | QKPLVASDGRTFLSRCEFQRAKCK [C5V] | 3.16
32 | QKPLQASDGRTFLSRCEFQRAKCK [C5Q] | 2.88
33 | QKPLWASDGRTFLSRCEFQRAKCK [C5W] | 2.31
34 | QKPLCASDGATFLSRCEFQRAKCK [R10A] | 3.24
35 | QKPLCASDGITFLSRCEFQRAKCK [R10I] | 2.53
36 | QKPLCASDGETFLSRCEFQRAKCK [R10E] | 3.27
37 | QKPLCASDGVTFLSRCEFQRAKCK [R10V] | 4.03
38 | QKPLCASDGKTFLSRCEFQRAKCK [R10K] | 2.96
39 | QKPLCASDGCTFLSRCEFQRAKCK [R10C] | 2.89
40 | QKPLCASDGTTFLSRCEFQRAKCK [R10T] | 3.54
41 | QKPLCASDGYTFLSRCEFQRAKCK [R10Y] | 2.91
42 | QKPLCASDGRTFLSRCEFQRYKCK [A21Y] | 2.58
43 | QKPLCASDGRTFLSRCEFQRKKCK [A21K] | 3.9
44 | QKPLCASDGRTFLSRCEFQRQKCK [A21Q] | 3.24
45 | QKPLCASDGRTFLSRCEFQREKCK [A21E] | 3.1
46 | QKPLCASDGRTFLSRCEFQRFKCK [A21F] | 2.44
47 | QKPLCASDGRTFLSRCEFQRGKCK [A21G] | 3.68
48 | QKPLCASDGRTFLSRCEFQRTKCK [A21T] | 3.4

Row | Variant | protein stability index
49 | QKPLCASDGRTFLSRCEFQRNKCK [A21N] | 2.68
50 | QKPLCASDGRTFLSRCEFQRMKCK [A21M] | 2.88
51 | QKPLCASDGRTFLSRCEFQRPKCK [A21P] | 3.98
52 | QKPLCASDGRTFLSRCEFQRDKCK [A21D] | 3.17
53 | QKPLCASDGRTFLSRCEFQRLKCK [A21L] | 2.48
54 | QKPLCASDGRTFLSRCEFQRVKCK [A21V] | 2.96
55 | QKPLCASDGRMFLSRCEFQRAKCK [T11M] | 2.89
56 | QKPLCASDGRFFLSRCEFQRAKCK [T11F] | 2.09
57 | QKPLCASDGRWFLSRCEFQRAKCK [T11W] | 2.81
58 | QKPLCASDGRGFLSRCEFQRAKCK [T11G] | 2.6
59 | QKPLCASDGRPFLSRCEFQRAKCK [T11P] | 3.37
60 | QKPLCASDGRAFLSRCEFQRAKCK [T11A] | 3.12
61 | QKPLCASDGRSFLSRCEFQRAKCK [T11S] | 3.14
62 | QKPLCASDGRTFLSRCEFQRAKMK [C23M] | 3.15
63 | QKPLCASDGRTFLSRCEFQRAKGK [C23G] | 3.62
64 | QKPLCASDGRTFLSRCEFQRAKTK [C23T] | 2.84
65 | QKPLCASDGRTFLSRCEFQRAKRK [C23R] | 4.18
66 | QKPLCASDGRTFLSRCEFQRAKKK [C23K] | 4.07
67 | QKPLCASDGRTFLSRCEFQRAKYK [C23Y] | 1.85
68 | QKPLCASDGRTFLSRCEFQRAKFK [C23F] | 1.88
69 | QKPLCASDGRTFLSRCEFQRAKQK [C23Q] | 3.91
70 | QKPLCASDGRTFLSRCEFQRAKSK [C23S] | 3.69
71 | QKPLCAADGRTFLSRCEFQRAKCK [S7A] | 2.33
72 | QKPLCAQDGRTFLSRCEFQRAKCK [S7Q] | 2

Row | Variant | protein stability index
73 | QKPLCAIDGRTFLSRCEFQRAKCK [S7I] | 2.31
74 | QKPLCAMDGRTFLSRCEFQRAKCK [S7M] | 1.67
75 | QKPLCAPDGRTFLSRCEFQRAKCK [S7P] | 3.45
76 | QKPLCAKDGRTFLSRCEFQRAKCK [S7K] | 3.32
77 | QKPLCAWDGRTFLSRCEFQRAKCK [S7W] | 2.85
78 | QKPLCADDGRTFLSRCEFQRAKCK [S7D] | 3.36
79 | QKPLCASDGRTFLQRCEFQRAKCK [S14Q] | 3.25
80 | QKPLCASDGRTFLFRCEFQRAKCK [S14F] | 2.64
81 | QKPLCASDGRTFLARCEFQRAKCK [S14A] | 3.42
82 | QEPLCASDGRTFLSRCEFQRAKCK [K2E] | 3.78
83 | QFPLCASDGRTFLSRCEFQRAKCK [K2F] | 2.75
84 | QPPLCASDGRTFLSRCEFQRAKCK [K2P] | 3.18
85 | QIPLCASDGRTFLSRCEFQRAKCK [K2I] | 3.51
86 | QDPLCASDGRTFLSRCEFQRAKCK [K2D] | 3.62
87 | QTPLCASDGRTFLSRCEFQRAKCK [K2T] | 3.18
88 | QWPLCASDGRTFLSRCEFQRAKCK [K2W] | 2.48
89 | QKPLCASDGRTFLSRCEFQRAKCD [K24D] | 3.35
90 | QKPLCASDGRTFLSRCEFQRAKCW [K24W] | 2.36
91 | QKPLCASDGRTFLSRCEFQRAKCT [K24T] | 3.18
92 | QKPLCASDGRTFLSRCEFQRAKCP [K24P] | 2.83
93 | QKPLCASDGRTFLSRCEFQRAKCV [K24V] | 2.62
94 | QKPLCASDGRTFLSRCEFQRAKCC [K24C] | 1.98

Reference: the supplement of paper PMC10567573
